Molecular target: the molecule itself
Test: native gel or EMSA

B1: Strep-tagged VP40[change] (VP40 truncated after residue 194) (domain or fragment)
chain: MRRVILPTAPPEYMEAIYPVRSNSTIARGGNSNTGFLTPESVNGDTPSNPLRPIADDTIDHASHTPGSVSSAFILEAMVNVISGPKVLMKQIPIWLPLGVADQKTYSFDSTTAAIMLASYTITHFGKATNPLVRVNRLGPGIPDHPLRLLRIGNQAFLQEFVLPPVQLPQYFTFDLTALKLITQPLPAATWTDD
Question: How did the “stoichiometry N” value turn out when B1 was run?
Answer: 8

— article PMC8568338 (Cell reports, 2021)
